The target in this assay is human BTLA (wild-type) on cells (human) (UniProt Q7Z6A9). The assay is described as follows: cell-based or functional assay.
Chain of human BTLA (wild-type) on cells (human) (Q7Z6A9 31-289): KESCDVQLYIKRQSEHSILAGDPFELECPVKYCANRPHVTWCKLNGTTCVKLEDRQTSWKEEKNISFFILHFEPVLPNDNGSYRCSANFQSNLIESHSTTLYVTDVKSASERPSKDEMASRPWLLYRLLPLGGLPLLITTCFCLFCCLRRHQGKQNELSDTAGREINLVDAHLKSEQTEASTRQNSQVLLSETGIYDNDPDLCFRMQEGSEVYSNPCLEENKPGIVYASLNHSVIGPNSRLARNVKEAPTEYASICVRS

Substance human CMV UL144-Fc (Fc fusion) gave an ERK1/2 phosphorylation, control JTAg cells activated with co-immobilized anti-CD3 and Fc protein of 50 to 70 % reduction; a ZAP70/Syk phosphorylation, JTAg cells with ectopic BTLA of 15 to 25%; a phosphorylation of ERK, Akt and cellular phosphotyrosines, BJAB cells activated with co-immobilized anti-IgM and titrated Fc protein of 50 % reduction.

The values are drawn from US20240247047A1.
